In the nanobody polyreactivity screen of Harvey et al. (2022):

Assay: yeast display, Sf9 membrane polyspecificity reagent, FACS + sequencing; frameworks hold sequencing errors
Method in brief: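 Nanobodies came from a synthetic yeast display library in Saccharomyces cerevisiae BJ5465, induced with galactose for 36–48 hours and stained for 1 hour at 4 °C with 10% biotinylated, detergent-solubilized Sf9 membrane reagent. Cells were enriched on streptavidin microbeads and then FACS-sorted, with low and high (top ~1%) gates set on anti-HA fluorescence for expression and streptavidin fluorescence for reagent binding. Each polyreactivity label reflects the gate a clone came from. Genes were amplified by colony PCR, sequenced by MiSeq 2 × 250 and filtered by CDR length.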

| Sequence | polyreactivity (PSR sort gate) |
| --- | --- |
| QVQLVESGGGLVQAGGSLRLSCAASGSIFYFYTMGWYRQAPGKERELVAAISGGGGSTYYADSVTGRFTISRDNAKNTVYLQMNSLKPEDTAVYYCAADGAGWLDYGYWGQGTQVTVSS | low polyreactivity |
| QVQLVESGGGLVQAGGSLRLSCAASGRTFYLYTMGWYRQAPWKERELVAGISWSGGSTYADSVKGRFTLSRDNAKNTVYLQMNSLKPEDTAVYYFNADDVRGLFYYWGQGTQVTVSS | low polyreactivity |
| QVQLVESGGGLVQAGGSLRLSCAASGRIFYYTMVWYRQAPGKERELVAAISWSGGSTYYADSVKGRFTISRDNAKNTVYLQMNSLKPEDTAVYYCATRSRRLYHYDYWGQGTQVTVSS | high polyreactivity |
| QVQLVESGGGLVQAGGSLRLSCAASGRTFHGYAMGWYRQAPGKERELVAAINWRGGSTYYADSVKGRFTISRDNAKNTVYLQMNSLKPEDTAVYYCNKRQYSARVSRSYDYWGQGTQVTVSS | high polyreactivity |
| QVQLVESGGGLVQAGGSLRLSCAASGFIFSSYAMGWYRQAPGKEREFVAVISTGGGSTYYADSVKGRFTLSRDNAKNTVYLQMISLKPEDTAVYYCAAKLYDSGGRYWYDYWGQGTQVTVSS | high polyreactivity |
| QVQLVESGGGLVQAGGSLRLSCAASGRTFVGNSMGWYRQAPGKERELVADITWSGDITYYADSVKGRFTISRDNAKNTVYLQMNSLKPEDTAVYYCAADYHRRRTDYDYWGQGTQVTVSS | low polyreactivity |
| QVQLVESGGGLVQAGGSLRLSCAASGSIFRVYAMGWYRQAPGKEREFVAAISYSTGSTYADSVKGRFTISRDNAKNTVYLQMNSLKPEDTAVYYCNARFRYGSRDEYDYWGQGTQVTVSS | low polyreactivity |
| QVQLVESGGGLVQAGGSLRLSCAASGSTFAVYGMGWYRQAPGKERELVAAISSSGARTYYADSVKGRFTISRDNAKNTVYLQMNSLKPEDTAVYYCAALPHRQAGYDYWGLGTQVTVSS | high polyreactivity |
| QVQLVESGGGLVQAGGSLRLSCAASGRILSGYTMGGYRQAPGKERELVAAINWRGGTTYYADSVKGRFTISRDNAKHTVYLQMNSLKPEDTAVYYCDADYYYQAGFYYWGQGTQVTVSS | low polyreactivity |
| QVQLVESGGGLVQAGGSLRLSCAASGSPFRGNAMGWYRQAPGKEREFVAAITVSCGSTYYADSVKGRFTISRDNAKNNVYLQMKSLNPEDTAVYYCAARYLRYSSKTIQNEDYWGQGTQVTVSS | high polyreactivity |
| QVQLVESGGGLVQAGGSLRLSCAASGSIFPPYVMGWYRQAPGKERELVASITTSGGSTYYADSVKGRFTISRDNAKNPVYLQMNSLKPEDTAVYYCAARWYYGGKSAGPGGGYWGQGTQVTVSS | low polyreactivity |
| QVQLVESGGGLVQAGGSLRLSCAASGRILWAYAMGWYRQAPGKEREFVAAISWSTGSTYYADSVKGRFTISRDNAKNTVNIQLNSLQPDDTAVYYCAAQLAKTIRGRGYNSWGQGTQVTVSS | low polyreactivity |
| QVQLVESGGGLVQAGGSLSLSCAATGRTFYHYVMGWYRQAPGKERELVAAISVSGGRTYYADSVKGRFTISRDNAKNTVYLQMNSLKPEDTAVYYCNARYGHRVRKEAGLSYYWGQGTQVTVSS | high polyreactivity |
| QVQIVDSGGGLVQAGGSLRLSCAASGRNFGYYAMGWYRQAPGKERELVAAISYSGGSTYYADSVKGRFTISRDMAKNTVYCQMNSLKPEDTAVYYCAAPGRWPQRYGYWGLGTQVTVSS | high polyreactivity |
| QVQLVESGGGLVQAGGSLRLSCAASGSIFLLNAMGWYRQAPGKERELVAVISSGTGSTYYADSVKGRFTISRDTAKNTVYLQMNSLKPEDTAVYYCAAERDAVLFFVGPYYITLDYDYWGQGTQVTVSS | low polyreactivity |
| QVQLVESGGGLVQAGGSLRLSCAASGRTFRYYTMGWYRQAPGKERELVAAITVGSRTNYADSEKGRFTISRDNAKNTVYFQMNSLKAEDTAVYYCARRSYYQYRYDYWGQGTQVTVSS | high polyreactivity |
| QVQLVESGGRLVQAGGSLRLSCAASGRIFASNAMGWYRQAPGKERELVAAITTTGGSTYYADSVKGRFTISRDNAKNTVYLQMNSLKPEDTAVYYCAARAIPRVRRYGSMNYWGQGTQVTVSS | high polyreactivity |
| QVQIVESGAGLVQAGGSLRLSCAASGIIFPRYAMGWYRQAPGKERELVAAITIGGRTNYGDSVKGRFTISRDNGKNTFYLQMKSLKPEDTAVYYCAAQTFVPYSEYDYWGQGTQVTVSS | low polyreactivity |
| QVQHVESGGGLVQAGGSLRLSCAASGSTFHLYAIGWYRQAPGKEREFVAAIRGRGGNTYADSVKGRFTISRDNAKNTVYLQMNSVKPEDTAVYSCAAPLLRDLRSPYSYNYWGQGTQVTVSS | low polyreactivity |
| QVQLVESGGGLVHAGGSLRLSCAASGSTYGGNAMGWYRQAPGKETELVASITRSGGSTYYADSVKGRFTISRDNAKNTVYLQMNSLKPEDTSVYYCAAGKWYRSPWKYDYWGQGTQVTVSS | low polyreactivity |
| QVQLVESGGGLVQAGGSLRLSCAASGSIFVRYAMGWYRQAPGKEREFVAARTGNTDYADSVKGRFTISRDNAKNTVYLQMNSLKPEDTAVYYCARRPRSGTVSTPYYSLDYWGQGTQVTVSS | low polyreactivity |
| QVQLVESGGGLVQAGGSLRLSCAASGFIFYKNTMGWYRQAPGKERELVAAITDGDHTNYADSVKGRFTISRDYAKNTVYLQMNSLKPEDTAVYYCAADYAWNYAFGYWGQGTQVTVSS | low polyreactivity |

| Sequence | polyreactivity (PSR sort gate) |
| --- | --- |
| QVQLVESVGGLVQAGGSLRLSCAASGSTFYGYAMGWYRQAPGKETELVAAINWSGGSTFYADSVKGRFTISRDNAKNTVYLKMNSLKPEDTAVYYCNKAWRGSVSRRYYYWGQGTQVTVSS | high polyreactivity |
| QVQLVESGGGLVQAGGSLRLSCAASGFIFGYNAMGWYRQAPGKESEFVAAISSSGASKYYADSVKGRFTISRDNAKNTVYLQMNSLKPEDTAVYYCAARYSWARYASTMGYWGQGTQVTVSS | high polyreactivity |
| QVQLVESGGGLVQAGGSLRLSCAASGSIFASYAMGWYRQAPGKERELVAAISRRAVRTYYADSVKGRFTISRDNAKNTVYLQMNSLKPEDTAVYYCNAASSLPGYDYWGQGTQVTVSS | high polyreactivity |
| QFQLVESGGGLVQAGGSLRLSCAASGSTSYRNAMGWYRQAPGKEREFVAAISWSGGSTYYADSVKGRFTISRDNAKNTVYLQMNSLKPEDTADYYSNADAYGTPEFTSYAVRYDYWGQGTQVTVSS | low polyreactivity |
| QVQLVESGGGLVQAGGSLRLSCAASGIIFYIYTMGWYRQAPGKERELVAAINRSGFRTYYADSVKGRFTISRDNAKNTVYLQMNSLKPEDTAVYYCAAGTGSRDYYWGQGTQVTVSS | high polyreactivity |
| QVQLVESGGGLVQAGGSLRLSCAASGRIFVYNVMGWYSQAPGKERELVAAISWGTGSTYADSVKGRFTISRANAKNSVYLQMNSLKPEDTAVYYCAADSFIPPYDHWGQGTQVTVSS | low polyreactivity |
| QVQLVESGGGLVQAGVSLRLSCAASGLTFGNYAMGWYRQAPGKERELVAAISKRGGTTYYADSVKARFTISRDNAKNTVYLQMNSLKPEDTAVYYCSARDYSHPTDDNYWGQGTQVTVSS | high polyreactivity |
| QVHLQESGAGLVQVGGSQRLSCAASGNIFYNYAMGWSRHAQGKEREFDATINHGTSINYADSVKGRFTISRDNAKNNVYLQMNCLKPEDTAVYYCAADLSWTDNLFYWGQGTQVSVSS | low polyreactivity |
| QDHLVESGGGVVQAGGSLRLSCAATGSTIYRYPMGSYRQAPGNERELVAAISTRGGSTYYADSVKGRFTISRDNRKNTVYLQMNSLKPVDTAVYYCAAKCGSPDDYDYWGQGTQVTVSS | high polyreactivity |
| QVQLVESGGVVVQAGGSLRLRCAASGITIPRYPMGWYRQAPGKERELVAAISPSGGGTYYADSVKGRFTISRDNAKNTVYLQMNSLKPEDTAVYYCAARYLGYLLSGYPPYDYWVQGTQVTVSS | high polyreactivity |
| QVQHVESGGGLVQAGGSLRLSCAASGRIFGSNAMGWYRQPPGKDRELVAAITWSGGSTYYADSVKGRFTISRDNAKNTVYLQMNSLKPEDTAVYDCAAPASRTKGPFPGYDYWGQGTQVTVSS | high polyreactivity |
| QVQLVESGGGLVQAGGSLRLSCAASGSTFGYYTMGWYRQAPGKERELVAAISGSGGRTYYADSVKGRFTISRDNAKKTVNLQMNSLKPEDTAVYYCAAEGRSDWGGDDYYWGQGTQVTVSS | low polyreactivity |
| QVQLVESGGGLVQAGGSLRLSCDASGNIFKSYVMGWYRQAPGKERELVAAITWSGGSTYYADSVKGRFTISRDNAKNTVYLQMNSLKPEDTAVYYCAAYPRRYRTTYDYWGQGTQVTVSS | high polyreactivity |
| QGQLVESWGGLVQAGGSLRLSSDASGRTFSLYAMGWYRQAPGKQTELVASITDSTGGSTYYADSVKGRFTISRDNAKNTVYLQMNSLKPADTAVYYSAAQDYQYSDYQWWFGFWGQGTQVTVSS | low polyreactivity |
| QVQLVESGGGLVQAGGSLRLSCAASGFTFSYNAMGWSRQAPGKERELVAAISSAGSTYYADSVKGRFTISRDNAKNTVYLQMNSLKPEDTAVYYCNAYRRSYRWYGDLGEYWGQGTQVTVSS | high polyreactivity |
| QVQLVESGGGLVQAGGSLRLSWAASGFIFPYNAMGWYRQAPGKERELVAVISSSGGDTYYADSVKGRFTISRDNAKNTVYLQMNSLIPVDTAVYYCAADSYYGYEYWGQGTQVTVSS | low polyreactivity |
| QVQLVESGGGLVQAGGSLRLSCAASGSIFRIYAMGWYRQAPGKERELVAAISRGSTRTYYADSVKGRFTISRDNAKNTVYLQMNSLKPEDTAVYYCNKAYPPEYDYWGQGTQVTVSS | high polyreactivity |
| QVQLVESGGGLVQAGGSLRLSCAASGSIISNYVKGWYRQAPGKERELVAAITRRGGRTYYADSVKGRFTISRDNAKNTVYLQMNSLKPEDTAVYYCAAQTISYSYPIIRYDYWGQGTQVTVSS | low polyreactivity |
| QVQLVESGGGLVQAGGSLRLSCAASGFIFRYYAMGWYRQAPGTERELVAAISQSGGSTDYADSVKGRFTISRDTAKNTVYLQMNSLKPVDTAVYYCATRTPYTKRDYWGQGTQVTVSS | high polyreactivity |
| QVQLVESGGGLVKAGGSLRLSCAASGRTFVYYAMGWYRQAPGKERELVAAISGSGGSTYYADSVKGRFTISRDNAKNTVYLQMNSLKPEDTAVYYCAAGPRGRYRYGYWGQGTQVTVSS | high polyreactivity |
| QVHLVESAGGLVQAGGSLSLSCAASAITLYFNAMGWYRQAPGKEREWVAAISWSGDSTYYADSVKGRFTISRDNAKNTVYLQMNSLKPEDTAVYYCAADRYTYYHYAWYEYWGQGTQVTVSS | low polyreactivity |
